Molecular target: T1, Human EphB4 (Genbank ID No. NP_004435) (human, UniProt P54760 16-987, limits assumed)
T1 construct: Detected as denatured protein on Western blot (MAb265), on tissue sections (MAb131) and by immunoprecipitation (MAb47); also called EphB4 receptor
T1 sequence: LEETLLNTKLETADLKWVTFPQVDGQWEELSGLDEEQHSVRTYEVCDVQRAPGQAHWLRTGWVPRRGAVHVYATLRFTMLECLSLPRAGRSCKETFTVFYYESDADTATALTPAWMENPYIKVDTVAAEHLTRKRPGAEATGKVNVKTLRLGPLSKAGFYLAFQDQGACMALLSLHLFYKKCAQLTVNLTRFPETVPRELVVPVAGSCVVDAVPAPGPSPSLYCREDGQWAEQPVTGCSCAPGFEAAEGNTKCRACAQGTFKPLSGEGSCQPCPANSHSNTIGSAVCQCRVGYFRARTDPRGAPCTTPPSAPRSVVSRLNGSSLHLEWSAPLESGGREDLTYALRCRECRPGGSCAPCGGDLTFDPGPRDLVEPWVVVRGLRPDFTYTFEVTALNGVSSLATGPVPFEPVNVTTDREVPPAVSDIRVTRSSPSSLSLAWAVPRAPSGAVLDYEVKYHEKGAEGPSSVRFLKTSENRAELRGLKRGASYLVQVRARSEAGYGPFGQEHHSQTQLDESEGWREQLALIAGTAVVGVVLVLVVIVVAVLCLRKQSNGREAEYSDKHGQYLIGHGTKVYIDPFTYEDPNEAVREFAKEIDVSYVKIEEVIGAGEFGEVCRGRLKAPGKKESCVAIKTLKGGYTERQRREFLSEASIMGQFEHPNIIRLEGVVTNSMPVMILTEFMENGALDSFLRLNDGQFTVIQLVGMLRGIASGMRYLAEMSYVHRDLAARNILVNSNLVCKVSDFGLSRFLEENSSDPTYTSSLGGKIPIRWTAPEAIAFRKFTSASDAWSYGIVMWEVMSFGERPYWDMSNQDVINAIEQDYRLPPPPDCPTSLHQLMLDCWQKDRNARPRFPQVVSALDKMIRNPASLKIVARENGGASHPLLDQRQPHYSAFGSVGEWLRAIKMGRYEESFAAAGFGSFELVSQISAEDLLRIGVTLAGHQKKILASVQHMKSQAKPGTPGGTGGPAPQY
Assay: Western blot

B1: mouse monoclonal antibody 265 (antibody, V domains shown)
VH: QQSGAELARPGASVKLSCKASGYTFTSYWMQWVKQRPGQGLEWIGAIYPGDGDTRYTQKFKGKATLTADKSSSTAYMQLSTLASEDSAVYYCARVGGWLLLAYWGQGTTVT
VL: DIVMTQSPSSLAMSVGQKVTMNCKSSQSLLNSNTQKNYLAWYQQKPGHSPKLLVYLSSTRESGVPDRFIGSGSGTDFTLTISSVQAEDLADYFCQQHYTTPLTFGAGTKLELKR
notes: Mouse monoclonal from a hybridoma; also called MAb265; MAB265
**Q.** Does B1 bind?
**A.** Result: binds

Source: WO2008112290A2 (dated 2008)
